Sequences and labels used below:
B1: HDV Ribozyme (parent)
chain: GGCCGGCAUGGUCCCAGCCUCCUCGCUGGCGCCGGCUGGGCAACAUUCCGAGGGGACCGUCCCCUCGGUAAUGGCGAAUGGGACCCA

In the series the parent is B1. Briefly: self-cleavage, relative activity (ratio to wild type); higher = more cleavage; co-transcriptional.
On to C41U C49U, for which the self-cleavage came to 0.749.
C41A C61G: the self-cleavage was determined as 0.909.
On to C41A C61A, for which the self-cleavage amounted to 1.07.
Turning to A42G A83U, the self-cleavage was 0.185.
For A42G A83C the value was 0.119.
With C41G C64A, the self-cleavage was 0.853.
Then C41G C64U, with 0.853; and C41A C86A, with 0.815.
For C41A G54U, the self-cleavage was determined as 0.862.
Consider A42C U46G, for which the self-cleavage amounted to 0.166.
A42C U46A: the self-cleavage was found to be 0.107.
Consider C41G C61G, for which the self-cleavage was 0.875.
As for C41G C61U, the self-cleavage amounted to 0.886.
On to C41G A51C, for which the self-cleavage stood at 0.635.
Regarding C41U C66A, the self-cleavage was found to be 0.719.
Then C41U C66U, with 1; and C41G G54A, with 0.831; and G40U G68A, with 0.722.
Turning to G40U G68C, the self-cleavage was determined as 0.443.
Then G40U G68U, with 0.858; and C41A C85A, with 0.636.
For C41A C85G, the self-cleavage turned out to be 0.86.
For C41U A87C the value was 1.09; for C41U A87G, 0.961; for C41U G76A, 0.95.
On to C41A C64U, for which the self-cleavage came out at 0.831.
Then C41A C64A, with 0.794.
Take C41U G53C: the self-cleavage is 1.05.
Regarding C41U G53U, the self-cleavage was determined as 1.1.
Take C41G G76C: the self-cleavage amounted to 0.91.
As for C41G G76U, the self-cleavage came to 0.989.
Take C41G G76A: the self-cleavage was determined as 0.991.
Consider A42C G53A, for which the self-cleavage worked out at 0.289.
As for A42C C49A, the self-cleavage is 0.262.
Then A42C C49U, with 0.115.
Consider C41U A43G, for which the self-cleavage was 0.356.
C41U A43C: the self-cleavage stood at 0.831.
Turning to C41U A43U, the self-cleavage worked out at 0.489.
With C41G C57U, the self-cleavage stood at 1.04.
With C41G C57A, the self-cleavage is 1.05.
For C41G A83U the value was 0.77; for C41U A77G, 0.95.
Regarding C41U A77U, the self-cleavage turned out to be 0.475.
In the case of C41U A77C, the self-cleavage worked out at 0.341.
In the case of A42C U79G, the self-cleavage turned out to be 0.151.
For C41G G52C the value was 0.509; for C41U C84A, 0.78; for G40U U46A, 0.364.
C41A A56U: the self-cleavage worked out at 0.89.
Regarding G40U G73A, the self-cleavage came out at 0.463.
Regarding G40U G73C, the self-cleavage is 0.166.
Then C41A G74A, with 0.692; and G40U G81A, with 0.328.
A42G A45U: the self-cleavage came to 0.598.
With A42G A45G, the self-cleavage turned out to be 0.383.
For C41U A45C the value was 0.569; for C41U A56G, 0.7.
Turning to C41U A56U, the self-cleavage was 1.09.
Turning to C41G G82U, the self-cleavage came to 0.157.
G40U U69C: the self-cleavage was 0.91.
Regarding G40U U69A, the self-cleavage worked out at 0.623.
In the case of C41G G67C, the self-cleavage came out at 0.678.
With C41G G67U, the self-cleavage came to 0.48.
With C41U G67A, the self-cleavage stood at 0.439.
Consider C41U G67C, for which the self-cleavage amounted to 0.554.
Take C41U G67U: the self-cleavage was 0.604.
Regarding C41G C85A, the self-cleavage is 0.617.
On to C41A U46C, for which the self-cleavage turned out to be 0.415.
Consider C41A U46A, for which the self-cleavage was found to be 0.7.
Then C41A U46G, with 0.554.
Turning to C41A C84U, the self-cleavage was 0.388.
Turning to C41A C84G, the self-cleavage was determined as 0.749.
Turning to G40U U72A, the self-cleavage came to 0.181.
Regarding G40U U72C, the self-cleavage was 0.176.
C41G G55A: the self-cleavage is 0.911.
C41G G55U: the self-cleavage is 0.86.
With C41A C63A, the self-cleavage was found to be 0.969.
Take C41G G80C: the self-cleavage is 0.164.
For C41G G80A, the self-cleavage was found to be 0.431.
On to C41G C44G, for which the self-cleavage is 0.158.
For A42C C48U, the self-cleavage worked out at 0.26.
As to A42C C48A, the self-cleavage came out at 0.361.
C41A G50C: the self-cleavage came to 0.877.
Turning to C41A G50A, the self-cleavage was 0.957.
On to C41A G50U, for which the self-cleavage is 0.886.
As to A42C C63G, the self-cleavage was 0.208.
As to A42C C63A, the self-cleavage turned out to be 0.277.
Then C41U C75U, with 0.249.
With A42C G52A, the self-cleavage is 0.399.
With A42C G76A, the self-cleavage was found to be 0.113.
In the case of A42C G76C, the self-cleavage was 0.277.
Turning to A42C C62G, the self-cleavage worked out at 0.0898.
As to A42C C62U, the self-cleavage came to 0.157.
As to C41U C63G, the self-cleavage is 0.739.
Take C41G U79A: the self-cleavage stood at 0.59.
As for C41G U79C, the self-cleavage was found to be 0.35.
Regarding C41G U79G, the self-cleavage stood at 0.302.
Then C41G A71C, with 0.0723.
Regarding C41G A71U, the self-cleavage turned out to be 0.554.
On to C41U G55C, for which the self-cleavage came out at 0.885.
A42G A70U: the self-cleavage is 0.365.
For C41A A51G the value was 0.705; for C41A A51C, 0.875.
For C41A G67C, the self-cleavage came to 0.525.
As for A42C A71C, the self-cleavage was determined as 0.332.
On to A42C A71U, for which the self-cleavage was 0.166.
With C41U U60G, the self-cleavage was determined as 1.1.
As to A42C G55A, the self-cleavage turned out to be 0.578.
Take C41G A45G: the self-cleavage came out at 1.01.
Then C41G A45C, with 0.166.
For C41G A45U, the self-cleavage turned out to be 0.594.
C41A G81U: the self-cleavage was 0.211.
In the case of C41U C86A, the self-cleavage turned out to be 1.04.
For C41U C86G, the self-cleavage amounted to 0.784.
As for A42C G50C, the self-cleavage was determined as 0.375.
In the case of A42C G50U, the self-cleavage stood at 0.386.
Turning to G40U U47C, the self-cleavage turned out to be 0.475.
For G40U G74A the value was 0.415; for A42C G73U, 0.0791; for A42C G59U, 0.424.
Regarding A42C G59A, the self-cleavage was determined as 0.213.
Turning to C41A U65C, the self-cleavage was determined as 1.14.
For A42C U69A the value was 0.156; for C41G C63G, 0.517.
For C41G G74U the value was 0.47; for C41G G74A, 0.486; for C41G G74C, 0.119.
Consider C41A G52A, for which the self-cleavage is 0.901.
In the case of C41A G52C, the self-cleavage worked out at 0.928.
With C41G C49A, the self-cleavage was 0.489.
In the case of C41U C85U, the self-cleavage is 0.845.
As for A42C U47A, the self-cleavage was determined as 0.0594.
As to C41U, the self-cleavage stood at 0.979.
Take C41A: the self-cleavage was 0.94.
As for C41G, the self-cleavage amounted to 0.798.
For A42C G74U, the self-cleavage came out at 0.0733.
A42C G74A: the self-cleavage was determined as 0.0652.
Consider C41G C48U, for which the self-cleavage was found to be 0.649.
Then C41G C48A, with 1.12; and C41G C48G, with 0.682; and A42C U72G, with 0.256.
Take A42C U60G: the self-cleavage amounted to 0.269.
For A42C U60C the value was 0.35; for A42C U60A, 0.189.
On to C41U U69A, for which the self-cleavage came to 1.08.
For C41U U69G, the self-cleavage was determined as 0.946.
For C41G U69G the value was 0.755; for A42C G82U, 0.138.
Consider A42C G82A, for which the self-cleavage came out at 0.107.
On to A42C G82C, for which the self-cleavage was 0.
For C41A A42G the value was 0.269; for C41A U47A, 0.689; for C41G U65G, 0.692.
For C41G U65A the value was 0.987.
Then C41A C48U, with 1.02; and C41A C48A, with 0.982; and C41A C44U, with 0.692.
With C41A C44A, the self-cleavage was 0.404.
Regarding A42C A87G, the self-cleavage was 0.219.
Consider A42C A87C, for which the self-cleavage came to 0.367.
Turning to C41A A70U, the self-cleavage worked out at 0.817.
With C41U A83U, the self-cleavage came out at 0.583.
With C41U A83C, the self-cleavage was 0.332.
Take G40U U79A: the self-cleavage was 0.262.
On to C41A U72G, for which the self-cleavage was 0.712.
As to C41A U72C, the self-cleavage turned out to be 0.653.
Turning to C41A U72A, the self-cleavage amounted to 0.906.

The values are drawn from the RNAGym collection of RNA variant scans (doi:10.7554/elife.80360).
